Experiment [1] has as its target cathepsin L-like activity of I. ricinus gut tissue extract (Ixodes ricinus (endogenous in gut tissue)).
In experiment [2] the target is Ixodes ricinus cathepsin B, native in gut tissue extract (Ixodes ricinus (endogenous in gut tissue)).
Experiment [3] addresses T1, human cathepsin H (human).
T1 sequence (P09668 116-335, looked up): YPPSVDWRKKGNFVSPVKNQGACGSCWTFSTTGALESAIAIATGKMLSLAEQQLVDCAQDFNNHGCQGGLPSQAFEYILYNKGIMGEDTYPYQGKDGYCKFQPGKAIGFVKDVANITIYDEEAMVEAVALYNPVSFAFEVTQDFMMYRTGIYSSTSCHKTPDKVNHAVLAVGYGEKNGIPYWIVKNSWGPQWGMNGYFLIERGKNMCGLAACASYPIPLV

The target of experiment [4] is human cathepsin L (human).
Chain of human cathepsin L (human) (P07711 18-333): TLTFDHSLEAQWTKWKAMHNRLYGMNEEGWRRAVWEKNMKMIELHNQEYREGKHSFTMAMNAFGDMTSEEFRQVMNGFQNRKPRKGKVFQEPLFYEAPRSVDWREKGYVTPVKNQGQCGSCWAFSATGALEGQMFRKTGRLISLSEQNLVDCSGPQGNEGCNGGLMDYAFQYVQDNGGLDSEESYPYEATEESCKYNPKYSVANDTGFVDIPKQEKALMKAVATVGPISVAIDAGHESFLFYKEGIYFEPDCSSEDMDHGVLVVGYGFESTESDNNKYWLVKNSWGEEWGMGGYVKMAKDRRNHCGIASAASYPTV
The target in experiment [5] is human cathepsin B (human).
In experiment [6] the target is human cathepsin C (human).
Chain of human cathepsin C (human) (P53634 25-463): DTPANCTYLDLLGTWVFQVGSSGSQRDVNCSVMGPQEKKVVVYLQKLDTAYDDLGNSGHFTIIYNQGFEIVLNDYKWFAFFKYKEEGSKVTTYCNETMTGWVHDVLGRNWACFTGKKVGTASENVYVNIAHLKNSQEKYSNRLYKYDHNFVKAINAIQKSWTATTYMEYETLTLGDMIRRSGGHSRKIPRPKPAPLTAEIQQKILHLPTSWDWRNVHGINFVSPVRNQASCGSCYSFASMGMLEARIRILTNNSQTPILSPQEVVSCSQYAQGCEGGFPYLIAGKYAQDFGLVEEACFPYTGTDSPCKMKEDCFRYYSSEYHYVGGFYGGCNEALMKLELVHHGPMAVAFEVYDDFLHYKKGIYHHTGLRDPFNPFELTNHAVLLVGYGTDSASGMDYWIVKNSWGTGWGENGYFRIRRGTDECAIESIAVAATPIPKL
The target of experiment [7] is Ixodes ricinus cathepsin L1 (Ixodes ricinus).
Experiment [8] concerns the target human cathepsin S (human) (UniProt P25774).
In experiment [9] the target is Ixodes ricinus cathepsin C, native in gut tissue extract (Ixodes ricinus (endogenous in gut tissue)).
Experiment [10] concerns the target cathepsins L and B activity of I. ricinus gut tissue extract (Ixodes ricinus (endogenous in gut tissue)).
Experiment [11] addresses T2, human cathepsin K (human) (UniProt P43235).
T2 sequence: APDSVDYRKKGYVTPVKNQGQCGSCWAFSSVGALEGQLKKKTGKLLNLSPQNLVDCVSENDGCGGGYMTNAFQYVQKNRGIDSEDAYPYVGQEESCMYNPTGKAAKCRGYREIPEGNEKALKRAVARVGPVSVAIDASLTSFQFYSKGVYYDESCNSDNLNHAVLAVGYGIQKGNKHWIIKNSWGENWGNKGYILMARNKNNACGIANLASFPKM

Experiment [12] has as its target Ixodes ricinus cathepsin L3 (Ixodes ricinus).

Chain of human cathepsin S (human) (P25774 115-331): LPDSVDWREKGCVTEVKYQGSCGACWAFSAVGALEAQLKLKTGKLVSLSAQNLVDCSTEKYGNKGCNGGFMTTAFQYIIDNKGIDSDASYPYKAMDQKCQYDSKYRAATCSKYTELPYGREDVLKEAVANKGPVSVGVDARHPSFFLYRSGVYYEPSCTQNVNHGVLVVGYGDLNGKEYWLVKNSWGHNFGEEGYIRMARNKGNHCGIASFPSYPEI

B1: mialostatin (natural protein)
chain: GSASRSKRALVGGWKTQDPTNPKFENLAHYAVSTQVEGREYYDTVLELLEVQTQIVAGVNYKLKFTTTQSTCKIETGVEYSKELCQPKTNKVEAVCTSIIYTVPWQNIKRVLSYHCDAPNDV
With B1, the IC50 of inhibition of cathepsin L activity in gut tissue extract (kinetic assay, Z-Phe-Arg-AMC, pH 4.5, with CA-074, 37 °C) in experiment [1] came out at 0.18 nM. Moreover, in [2], the IC50 of inhibition of cathepsin B activity in gut tissue extract (kinetic assay, Z-Arg-Arg-AMC, pH 6.5, with Z-Phe-Phe-DMK, 37 °C) amounted to 12.1 nM. The same molecule returned an IC50 of inhibition of protease activity (kinetic assay, 20 nM cathepsin H, Z-Leu-Arg-AMC, pH 6.8, 37 °C) in experiment [3] of 24 nM. In addition, the IC50 of inhibition of protease activity (kinetic assay, 33 pM cathepsin L, Z-Leu-Arg-AMC, pH 5.5, 37 °C) in experiment [4] was found to be 0.38 nM. In experiment [5], this molecule came in with an IC50 of inhibition of protease activity (kinetic assay, 35 pM cathepsin B, Z-Leu-Arg-AMC, pH 5.5, 37 °C) of 9 nM. Further, the IC50 of inhibition of protease activity (kinetic assay, 0.5 nM cathepsin C, Gly-Arg-AMC, pH 5.5, 37 °C) in experiment [6] is 2.1 nM. Further, the IC50 of inhibition of protease activity (kinetic assay, 0.1 nM IrCL1, Z-Phe-Arg-AMC, pH 4.5, 37 °C) in experiment [7] was determined as 71 pM. Moreover, the IC50 of inhibition of protease activity (kinetic assay, 350 pM cathepsin S, Z-Val-Val-Arg-AMC, pH 5.5, 37 °C) in [8] came to 2.2 nM. In [9], this molecule gave an IC50 of inhibition of cathepsin C activity in gut tissue extract (kinetic assay, Gly-Arg-AMC, pH 5.5, with E-64, 37 °C) of 91.7 nM. Also, the IC50 of inhibition of cathepsins L and B activity in gut tissue extract (kinetic assay, Z-Phe-Arg-AMC, pH 5.0, 37 °C) in experiment [10] amounted to 3.1 nM. This molecule displayed an IC50 of inhibition of protease activity (kinetic assay, 5 nM cathepsin K, Z-Leu-Arg-AMC, pH 5.5, 37 °C) in experiment [11] of 9.7 nM. The molecule further came in with an IC50 of inhibition of protease activity (kinetic assay, 20 pM IrCL3, Z-Phe-Arg-AMC, pH 4.5, 37 °C) in [12] of 0.39 nM.

The record behind these values is publication PMC8161381.
